This is an account of results in patent US20170281792A1 (Genentech, published 2017).

In experiment [1] the target is T1, gD epitope-tagged cynomolgus monkey mesothelin expressed on cells (construct #383) (cynomolgus monkey).
T1 construct: also called cyno mesothelin
T1 chain: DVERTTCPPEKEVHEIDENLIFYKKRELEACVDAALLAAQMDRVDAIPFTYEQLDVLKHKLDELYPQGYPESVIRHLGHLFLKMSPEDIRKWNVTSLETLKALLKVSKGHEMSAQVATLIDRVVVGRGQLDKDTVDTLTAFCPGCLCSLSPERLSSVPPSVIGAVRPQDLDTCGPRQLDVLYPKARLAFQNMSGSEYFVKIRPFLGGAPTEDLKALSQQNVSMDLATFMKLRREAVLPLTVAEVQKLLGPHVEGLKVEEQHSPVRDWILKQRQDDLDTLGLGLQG
Kind of experiment: FACS on transiently transfected 293 cells.

Experiment [2] addresses T2, gD epitope-tagged mouse mesothelin expressed on cells (construct #385) (mouse, UniProt Q61468 298-582).
T2 sequence: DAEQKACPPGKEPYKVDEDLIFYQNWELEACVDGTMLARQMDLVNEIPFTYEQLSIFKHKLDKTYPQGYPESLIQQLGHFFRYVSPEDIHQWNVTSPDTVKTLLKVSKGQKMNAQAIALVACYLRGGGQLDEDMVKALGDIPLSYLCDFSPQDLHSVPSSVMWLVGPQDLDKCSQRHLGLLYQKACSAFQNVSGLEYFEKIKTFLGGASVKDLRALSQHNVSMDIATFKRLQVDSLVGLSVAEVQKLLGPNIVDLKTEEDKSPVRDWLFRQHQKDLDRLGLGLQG
Kind of experiment: FACS on transiently transfected 293 cells.

The target of experiment [3] is T3, E. coli derived recombinant human mesothelin (human, UniProt Q13421 296-580).
T3 construct: not shown: N-terminal unizyme His (HQ)-tag
T3 sequence (Q13421 other isoform, or with tags, fused parts or gaps): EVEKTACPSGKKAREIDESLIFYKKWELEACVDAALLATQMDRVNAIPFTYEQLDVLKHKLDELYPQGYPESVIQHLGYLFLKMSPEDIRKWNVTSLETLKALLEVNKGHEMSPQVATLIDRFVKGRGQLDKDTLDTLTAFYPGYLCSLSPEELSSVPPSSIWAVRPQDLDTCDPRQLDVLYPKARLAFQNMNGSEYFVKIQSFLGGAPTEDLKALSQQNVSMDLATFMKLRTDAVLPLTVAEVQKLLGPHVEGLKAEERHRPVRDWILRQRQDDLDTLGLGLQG
Nature of the experiment: Biacore (column 'Kd (nM) Biacore'); antigen preparation not given, the filing's Biacore assays use E. coli derived human mesothelin. (SPR reads the build-up and loss of mass on a sensor chip optically.)

Experiment [4] addresses T2, gD epitope-tagged mouse mesothelin …. Kind of experiment: FACS on stably transfected 293 cells. Here is the method:
Monoclonal antibodies were tested to determine if they cross-react with mesothelin from species other than human. […] Shaded residues are identical between at least two species. Unshaded residues differ between at least two of the four species. […] Anti-gD staining verified that mouse mesothelin was indeed expressed.

Experiment [5] deals with T4, gD epitope-tagged human mesothelin expressed on cells (construct #387) (human, UniProt Q13421 296-580).
T4 construct: also called gD-human mesothelin; gD-tagged human mesothelin
T4 sequence (Q13421 other isoform, or with tags, fused parts or gaps): as above
Nature of the experiment: Scatchard, 125I-labelled antibody on stably transfected 293 cells. The procedure: (§1) The data was analyzed with non-linear regression curve fitting in the New Ligand program (Genentech, Inc., South San Francisco, Calif.) to estimate Kd values (Munson et al., Anal. Biochem., 107 220-239 (1980)).

Experiment [6] concerns the target T4, gD epitope-tagged human mesothelin …. Nature of the experiment: Scatchard, 125I-labelled antibody on stably transfected BJAB cells. The procedure:
as §1

Experiment [7] has the same target. Kind of experiment: Scatchard, 125I-labelled antibody on stably transfected HT1080 cells. Here is the method:
as §1

The target in experiment [8] is T5, C-terminally his-tagged human mesothelin expressed in CHO cells (Mono S fractions A11, A12, B1, B5) (human, UniProt Q13421 296-580).
T5 construct: also called glycosylated mesothelin; not shown: C-terminal his tag
T5 sequence (Q13421 other isoform, or with tags, fused parts or gaps limits assumed): as the sequence (Q13421 other isoform, or with tags, fused parts or gaps) above
Nature of the experiment: SPR: each Mono S fraction (A11, A12, B1, B5) flowed over a chip with prebound h7D9.v3. The source says: To determine whether h7D9.v3 binds to glycosylated mesothelin, C-terminally his-tagged human mesothelin was expressed in CHO cells, purified and further separated according to charge on a Mono S column into fractions with high (fraction A11), medium (A12), low (B1) and low-to-none (B5) glycosylation of mesothelin, as shown by Coomassie Blue staining on an SDS-PAGE gel. (FIG. 20, top left). […] (FIG. 20, right).

Experiment [9] has as its target T6, human mesothelin on cells (endogenous on tumour cell lines and tissue, or stably expressed on A431 or HT1080 … (human, UniProt Q13421 296-580)).
T6 construct: also called endogenous mesothelin; endogenous human mesothelin
Nature of the experiment: Scatchard; range for endogenous mesothelin in four pancreatic and two ovarian cell lines. Here is the method:
as §1

Experiment [10] deals with T6, human mesothelin on cells (endogenous …). Kind of experiment: Scatchard analysis (125I-labelled antibody) on HPAC cells, endogenous mesothelin. The procedure: as §1
For experiment [11] the target is unchanged. Kind of experiment: Scatchard analysis (125I-labelled antibody) on AsPC1 cells, endogenous mesothelin. The procedure:
as §1

Experiment [12] has the same target. Kind of experiment: Scatchard analysis (125I-labelled antibody) on Capan2 cells, endogenous mesothelin. The procedure: as §1
The target is the same in experiment [13]. Nature of the experiment: Scatchard analysis (125I-labelled antibody) on OvCar3 cells, endogenous mesothelin. The procedure: as §1
The target is the same in experiment [14]. Kind of experiment: Scatchard analysis (125I-labelled antibody) on HPAF-II cells, endogenous mesothelin. The procedure:
as §1

For experiment [15], the target named is T3, E. coli derived recombinant human …. Kind of experiment: Biacore-2000, IgG over immobilised E. coli derived human mesothelin, 1:1 fit. The procedure: 7D9 variants were expressed as IgG by CHO transient transfection. IgG was purified with protein G affinity chromatography. The affinity of each 7D9 IgG variant for human mesothelin was determined by surface plasmon resonance using a BIACORE™-2000. BIACORE™ research grade CM5 chips were immobilized with approximately 110 RU of E. coli derived recombinant human mesothelin using the amine coupling kit from BIACORE™. […] Each sample was analyzed with 5-minute association and 3.5-minute dissociation. After each injection the chip was regenerated using 10 mM Glycine pH 1.7. Binding response was corrected by subtracting the RU from a flow cell with an irrelevant IgG immobilized at similar density. A 1:1 Languir model of simultaneous fitting of kₒₙ and koff was used for kinetics analysis.

In experiment [16] the target is T6, human mesothelin on cells (endogenous …). Kind of experiment: Scatchard analysis (125I-labelled antibody) on OvCar3x2.1 cells, endogenous mesothelin. The procedure: as §1
The target of experiment [17] is T7, gD epitope-tagged rat mesothelin expressed on cells (rat, UniProt Q9ERA7 298-582).
T7 sequence: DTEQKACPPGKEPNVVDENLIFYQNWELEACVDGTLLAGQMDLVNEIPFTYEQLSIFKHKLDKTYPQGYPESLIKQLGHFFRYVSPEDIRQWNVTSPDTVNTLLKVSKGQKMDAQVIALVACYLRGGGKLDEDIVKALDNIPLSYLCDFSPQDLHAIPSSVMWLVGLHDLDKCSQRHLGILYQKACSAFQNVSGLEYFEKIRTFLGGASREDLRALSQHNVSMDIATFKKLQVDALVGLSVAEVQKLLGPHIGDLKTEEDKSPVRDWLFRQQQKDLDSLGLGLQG
Kind of experiment: immunoprecipitation from BJAB cells stably expressing gD-tagged rat mesothelin, Western blot with murine anti-gD. In general terms: Immunoblotting shows a protein as a band on a membrane.

The target of experiment [18] is T1, gD epitope-tagged cynomolgus monkey …. Nature of the experiment: immunoprecipitation from BJAB cells stably expressing gD-tagged cyno mesothelin, Western blot with murine anti-gD.

T6 sequence (Q13421 other isoform, or with tags, fused parts or gaps): as the sequence (Q13421 other isoform, or with tags, fused parts or gaps) above

B1: mouse monoclonal antibody 7D9 (antibody, V domains shown)
VH: QVQLQQSGAELAKPGASVKMSCKASGYTFTTYWMHWVKQRPGQGLEWIGYIRPSTGYTEYNQKFKDKATLTADKSSSTAYMQLSSLTSEDSTVYYCARSRWLLDYWGQGTSLTVS
VL: DIMMTQSPSSLAVSAGEKVTMSCKSSQSVLYSSNQKNYLAWFQQKPGQSPKLLIYWASTRESGVPDRFTGSGSGTDFTLTISSVQAEDLAVYFCHQYLSSYTFGGGTKVEIK
notes: also called m7D9; mu7D9
The term Kd denotes the concentration at which binding is half-saturated. In the case of B1, the binding result in experiment [1] and in experiment [2] was “no binding (tested: 0.02 µg/ml)” each time. Also, the equilibrium dissociation constant (Kd) in [3] stood at 0.23 nM.

B2: humanized monoclonal antibody 7D9.v3 (antibody, V domains shown)
VH: EVQLVESGGGLVQPGGSLRLSCAASGYTFTTYWMHWVRQAPGKGLEWVGYIRPSTGYTEYNQKFKDRFTISADTSKNTAYLQMNSLRAEDTAVYYCARSRWLLDYWGQGTLVTVS
VL: DIQMTQSPSSLSASVGDRVTITCKSSQSVLYSSNQKNYLAWFQQKPGKAPKLLIYWASTRESGVPSRFSGSGSGTDFTLTISSLQPEDFATYFCHQYLSSYTFGQGTKVEIKR
notes: also called h7D9.v3; hu7D9.v3
Turning to B2, the binding result in experiment [4] is “no binding (tested: 10 µg/ml)”; in [17], “no binding”; in experiment [18], “no binding”. Besides, the Kd in experiment [5] is 0.2 nM; in [6], 0.25 nM; in experiment [7], 0.97 nM; in [8] it was 1.5 nM; in [9] it was 0.41 to 1 nM; in [10], 1 nM. Also, the Kd was 0.58 nM in experiment [11]; 0.63 nM in experiment [12]; 0.53 nM in experiment [13]; 0.41 nM in [14]; 1.9 nM in [15]; 0.56 nM in experiment [16].
